Results on 3 molecules are retold here after publication PMC5363870, “A functional variant in NEPH3 gene confers high risk of renal failure in primary hematuric glomerulopathies. Evidence for predisposition to microalbuminuria in the general population” (PLoS ONE, 2017).

B2: Neph3 (filtrin) 353M variant (natural protein, human, UniProt Q6UWL6 21-708, looked up)
chain: GPSPHFLQQPEDLVVLLGEEARLPCALGAYWGLVQWTKSGLALGGQRDLPGWSRYWISGNAANGQHDLHIRPVELEDEASYECQATQAGLRSRPAQLHVLVPPEAPQVLGGPSVSLVAGVPANLTCRSRGDARPTPELLWFRDGVLLDGATFHQTLLKEGTPGSVESTLTLTPFSHDDGATFVCRARSQALPTGRDTAITLSLQYPPEVTLSASPHTVQEGEKVIFLCQATAQPPVTGYRWAKGGSPVLGARGPRLEVVADASFLTEPVSCEVSNAVGSANRSTALDVLFGPILQAKPEPVSVDVGEDASFSCAWRGNPLPRVTWTRRGGAQMLGSGATLRLPSVGPEDAGDYVCRAEAGLSGLRGGAAEARLTVNAPPVVTALHSAPAFLRGPARLQCLVFASPAPDAVVWSWDEGFLEAGSQGRFLVETFPAPESRGGLGPGLISVLHISGTQESDFSRSFNCSARNRLGEGGAQASLGRRDLLPTVRIVAGVAAATTTLLMVITGVALCCWRHSKASASFSEQKNLMRIPGSSDGSSSRGPEEEETGSREDRGPIVHTDHSDLVLEEEGTLETKDPTNGYYKVRGVSVSLSLGEAPGGGLFLPPPSPLGPPGTPTFYDFNPHLGMVPPCRLYRARAGYLTTPHPRAFTSYIKPTSFGPPDLAPGTPPFPYAAFPTPSHPRLQTHV
notes: Neph3 (filtrin), human NEPH3 cDNA with the natural variant V353M (GTG to ATG by site-directed mutagenesis); Each copy carries ONE tag: FLAG on the bait copy, HA on the prey copy of the homodimerisation co-IP; Two FLAG constructs are described (Origene pCMV6 with FLAG-tag; modified pcDNA6 with CD5 signal peptide fused to the FLAG-tag); also called NEPH3-V353M; NEPH3-p.V353M; source: HEK 293T, …
B3: Neph3 (filtrin) 353V (natural protein, human, UniProt Q6UWL6 21-708, looked up)
chain: GPSPHFLQQPEDLVVLLGEEARLPCALGAYWGLVQWTKSGLALGGQRDLPGWSRYWISGNAANGQHDLHIRPVELEDEASYECQATQAGLRSRPAQLHVLVPPEAPQVLGGPSVSLVAGVPANLTCRSRGDARPTPELLWFRDGVLLDGATFHQTLLKEGTPGSVESTLTLTPFSHDDGATFVCRARSQALPTGRDTAITLSLQYPPEVTLSASPHTVQEGEKVIFLCQATAQPPVTGYRWAKGGSPVLGARGPRLEVVADASFLTEPVSCEVSNAVGSANRSTALDVLFGPILQAKPEPVSVDVGEDASFSCAWRGNPLPRVTWTRRGGAQVLGSGATLRLPSVGPEDAGDYVCRAEAGLSGLRGGAAEARLTVNAPPVVTALHSAPAFLRGPARLQCLVFASPAPDAVVWSWDEGFLEAGSQGRFLVETFPAPESRGGLGPGLISVLHISGTQESDFSRSFNCSARNRLGEGGAQASLGRRDLLPTVRIVAGVAAATTTLLMVITGVALCCWRHSKASASFSEQKNLMRIPGSSDGSSSRGPEEEETGSREDRGPIVHTDHSDLVLEEEGTLETKDPTNGYYKVRGVSVSLSLGEAPGGGLFLPPPSPLGPPGTPTFYDFNPHLGMVPPCRLYRARAGYLTTPHPRAFTSYIKPTSFGPPDLAPGTPPFPYAAFPTPSHPRLQTHV
notes: Neph3 (filtrin), human NEPH3 cDNA, wild-type allele with valine at position 353; Each copy carries ONE tag: FLAG on the bait copy, HA on the prey copy of the homodimerisation co-IP; Two FLAG constructs are described (Origene pCMV6 with FLAG-tag; modified pcDNA6 coding for the CD5 signal peptide fused to the FLAG-tag); In the pcDNA6 constructs a CD5 signal peptide precedes the tag; also called …

Assay in all cases: co-IP; HEK 293T cells co-transfected, lysed in IP-buffer (1% Triton X-100, 20 mM Tris pH 7.5, 25 mM NaCl); FLAG-Neph3 precipitated with anti-FLAG, blot with anti-HA (HA-Neph3) or anti-V5 (sV5-nephrin); densitometry (ImageJ) normalised to input, wild type set at 1.0, n = 3
For the data set “Neph3 (filtrin) 353V”, the target named is B3. The note with it: partners not purified.
In data set [1] the target is B2. The note with it: partners not purified.
Data set [2] concerns the molecule itself.

B1: Nephrin (Nphs1) (natural protein, human, UniProt O60500 23-1241, looked up)
chain: QLAIPASVPRGFWALPENLTVVEGASVELRCGVSTPGSAVQWAKDGLLLGPDPRIPGFPRYRLEGDPARGEFHLHIEACDLSDDAEYECQVGRSEMGPELVSPRVILSILVPPKLLLLTPEAGTMVTWVAGQEYVVNCVSGDAKPAPDITILLSGQTISDISANVNEGSQQKLFTVEATARVTPRSSDNRQLLVCEASSPALEAPIKASFTVNVLFPPGPPVIEWPGLDEGHVRAGQSLELPCVARGGNPLATLQWLKNGQPVSTAWGTEHTQAVARSVLVMTVRPEDHGAQLSCEAHNSVSAGTQEHGITLQVTFPPSAIIILGSASQTENKNVTLSCVSKSSRPRVLLRWWLGWRQLLPMEETVMDGLHGGHISMSNLTFLARREDNGLTLTCEAFSEAFTKETFKKSLILNVKYPAQKLWIEGPPEGQKLRAGTRVRLVCLAIGGNPEPSLMWYKDSRTVTESRLPQESRRVHLGSVEKSGSTFSRELVLVTGPSDNQAKFTCKAGQLSASTQLAVQFPPTNVTILANASALRPGDALNLTCVSVSSNPPVNLSWDKEGERLEGVAAPPRRAPFKGSAAARSVLLQVSSRDHGQRVTCRAHSAELRETVSSFYRLNVLYRPEFLGEQVLVVTAVEQGEALLPVSVSANPAPEAFNWTFRGYRLSPAGGPRHRILSSGALHLWNVTRADDGLYQLHCQNSEGTAEARLRLDVHYAPTIRALQDPTEVNVGGSVDIVCTVDANPILPGMFNWERLGEDEEDQSLDDMEKISRGPTGRLRIHHAKLAQAGAYQCIVDNGVAPPARRLLRLVVRFAPQVEHPTPLTKVAAAGDSTSSATLHCRARGVPNIVFTWTKNGVPLDLQDPRYTEHTYHQGGVHSSLLTIANVSAAQDYALFTCTATNALGSDQTNIQLVSISRPDPPSGLKVVSLTPHSVGLEWKPGFDGGLPQRFCIRYEALGTPGFHYVDVVPPQATTFTLTGLQPSTRYRVWLLASNALGDSGLADKGTQLPITTPGLHQPSGEPEDQLPTEPPSGPSGLPLLPVLFALGGLLLLSNASCVGGVLWQRRLRRLAEGISEKTEAGSEEDRVRNEYEESQWTGERDTQSSTVSTTEAEPYYRSLRDFSPQLPPTQEEVSYSRGFTGEDEDMAFPGHLYDEVERTYPPSGAWGPLYDEVQMGPWDLHWPEDTYQDPRGIYDQVAGDLDTLEPDSLPFELRGHLV
notes: Nephrin, human NPHS1 cDNA cloned into a modified pcDNA6 vector behind the CD5 signal peptide and the V5 tag (sV5-tag); A CD5 signal peptide precedes the V5 tag in the construct; also called sV5-Nphs1; sV5-Nephrin; source: HEK 293T, transfected (calcium phosphate), in lysate; not shown: V5, N-terminal, kept
Consider B1, for which the “mean normalized densitometry value (co-IP)” value with Neph3 (filtrin) 353V was 1 relative to wild type (1.0). Moreover, in data set [1], the “mean densitometry value (co-IP)” value was 1.18 relative to wild type (1.0).
Consider B2, for which the figures for the “mean normalized densitometry value (co-IP)” value (with Neph3 (filtrin) 353V; in data set [2]) were 4.33 relative to wild type (1.0) and 23.8 relative to wild type (1.0), respectively.
Turning to B3, in data set [2], the “mean normalized densitometry value (co-IP)” value was 1 relative to wild type (1.0).
